Consider 22 molecules from patent publication US20250043022A1 (JIANGSU HENGRUI PHARMACEUTICALS, published 2025).

Sequences and labels used below:
B1: 2-F2 (bispecific antibody)
heavy 1: not shown
light 1: EIVLTQSPDFQSVTPKEKVTITCSASSSVSHMYWYQQKPDQSPKLLIYRTSNLASGVPSRFSGSGSGTDFTLTINSLEAEDAATYYCQQYHSYPLMFGQGTKLEIKRTVAAPSVFIFPPSDEQLKSGTASVVCLLNNFYPREAKVQWKVDNALQSGNSQESVTEQDSKDSTYSLSSTLTLSKADYEKHKVYACEVTHQGLSSPVTKSFNRGEC
heavy 2: not shown
light 2: not shown
B2: HJ-3 (bispecific antibody)
chain 1: not shown
chain 2: DIQMTQSPSSVSASVGDRVTITCRASQDIANYLSWYQQKPGKSPKLLIYGTSNLEVGVPSRFSGSRSGTDFTLTISSLQPEDFATYYCLQDKEFPRTFGGGTKVEIKGGGGSSGAPRFLTRPLAFVVSVGKDATLSSQIVGNPTPQVSWEKDKQPVTAGARFRLAQDGDLYRLKILDLQLSDSGQYVSRARNAIGEAFACLGLQVDAEA
chain 3: EVQLVQSGAEVKKPGSSVKVSCKASGYTFSNYLIEWVRQAPGQGLEWIGVIDPGVGDTNYNENFKGRATLTADKSTSTAYIELSSLRSEDTAVYYCAREDNTGTAFDYWGQGTTVTVSSASTKGPSVFPLAPSSKSTSGGTAALGCLVKDYFPEPVTVSWNSGALTSGVHTFPAVLQSSGLYSLSSVVTVPSSSLGTQTYICNVNHKPSNTKVDKKVEPKSCDKTHTCPPCPAPEAAGGPSVFLFPPKPKDTLMISRTPEVTCVVVDVSHEDPEVKFNWYVDGVEVHNAKTKPREEQYNSTYRVVSVLTVLHQDWLNGKEYKCKVSNKALPAPIEKTISKAKGQPREPQVCTLPPSREEMTKNQVSLSCAVKGFYPSDIAVEWESNGQPENNYKTTPPVLDSDGSFFLVSKLTVDKSRWQQGNVFSCSVMHEALHNHYTQKSLSLSPGKDYKDDDDK
chain 4: SIVMTQTPLSLSVTPGQPASISCKASQSVSSDVTWYLQKPGQSPQLLIYYVSEHYTGVPDRFSGSGYGTDFTLKISRVEAEDVGVYYCQQHHRFPLTFGQGTKLEIKRTVAAPSVFIFPPSDEQLKSGTASVVCLLNNFYPREAKVQWKVDNALQSGNSQESVTEQDSKDSTYSLSSTLTLSKADYEKHKVYACEVTHQGLSSPVTKSFNRGEC
B3: HJ-7 (bispecific antibody)
chain 1: not shown
chain 2: B2 chain 2 with L123K, F125S, S137C, T144F, A160V, S188C, I194H
chain 3: EVQLVQSGAEVKKPGSSVKVSCKASGYTFSNYLIEWVRQAPGQGLEWIGVIDPGVGDTNYNENFKGRATLTADKSTSTAYIELSSLRSEDTAVYYCAREDNTGTAFDYWGQGTTVTVSSASTKGPSVFPLAPSSKSTSGGTAALGCLVKDYFPEPVTVSWNSGALTSGVHTFPAVLQSSGLYSLSSVVTVPSSSLGTQTYICNVNHKPSNTKVDKKVEPKSCDKTHTCPPCPAPEAAGGPSVFLFPPKPKDTLMISRTPEVTCVVVDVSHEDPEVKFNWYVDGVEVHNAKTKPREEQYNSTYRVVSVLTVLHQDWLNGKEYKCKVSNKALPAPIEKTISKAKGQPREPQVCTLPPSREEMTKNQVSLSCAVKGFYPSDIAVEWESNGQPENNYKTTPPVLDSDGSFFLVSKLTVDKSRWQQGNVFSCSVMHEALHNHYTQKSLSLSPGK
chain 4: B2 chain 4
B4: HJ-5 (bispecific antibody)
chain 1: not shown
chain 2: B2 chain 2 with L123K, F125S, T144F, A160V, I194H
chain 3: B3 chain 3
chain 4: B2 chain 4
B5: HJ-6 (bispecific antibody)
chain 1: not shown
chain 2: B2 chain 2 with R121C, L123K, F125S, T144F, A160V, I194H
chain 3: B3 chain 3
chain 4: B2 chain 4
B6: PL-5 (bispecific antibody)
chain 1: not shown
chain 2: DIVLTQSPASLAVSPGQRATITCRASESVSIHGTHLMHWYQQKPGQPPKLLIYAASKLESGVPARFSGSGSGTDFTLTINPVEAEDTANYYCQQSFEDPLTFGQGTKLEIKGGGGSGIPPKIECLPIDISIDEGKVLTVASAFTGEPTPEVTWSTGGRKIHSQEQGRFHIENTDDSTTLTIKDVQKQDGGLYTLTLRNEFGSDSATVNIHIRSI
chain 3: not shown
chain 4: not shown
B7: PL-6 (bispecific antibody)
chain 1: not shown
chain 2: B6 chain 2 with V136C
chain 3: not shown
chain 4: not shown
B8: PL-11 (bispecific antibody)
chain 1: not shown
chain 2: B6 chain 2 with G112R, G113T, G114V, G115A
chain 3: not shown
chain 4: not shown
B9: PL-10 (bispecific antibody)
chain 1: not shown
chain 2: B6 chain 2 with A142C
chain 3: not shown
chain 4: not shown
B10: PL-7 (bispecific antibody)
chain 1: not shown
chain 2: B6 chain 2 with A142C
chain 3: not shown
chain 4: not shown
B11: PL-9 (bispecific antibody)
chain 1: not shown
chain 2: B6 chain 2 with V136C
chain 3: not shown
chain 4: not shown
B12: PL-8 (bispecific antibody)
chain 1: not shown
chain 2: B6 chain 2
chain 3: not shown
chain 4: not shown
B13: Chi13 (antibody, human IgG1, kappa, V domains shown)
VH: QVQLKESGPGLVAPSQSLSITCTVSGFSLTNYAISWVRQPPGKGLEWLGVIWTGGGTHYNSALKSRLSISKDNSKSQVFLKMNSLQTDDTARYYCARKGNYYGSSLYYYAMNYWGQGTSVTVSS
VL: DIQMTQTTSSLSASLGDRVTISCRASQDISNYLNWYQQKPDGTVKLLIYYTSRLQSGVPSRFSGSGSGTDYSLSISNLEQEDIATYFCQQGDTLPYTFGGGTKLEIRT
notes: chimeric antibody, hIgG1/kappa
B14: hu13H2L2 (antibody, human IgG1, kappa, V domains shown)
VH: EVTLKESGPVLVKPTETLTLTCTVSGFSLSNYAISWIRQPPGKALEWLGVIWTGGGTHYNSALKSRLTISKDTSKSQVVLTMTNMDPVDTARYYCARKGNYYGSSLYYYAMNYWGQGTTVTVSS
VL: DIQMTQSPSSLSASVGDRVTITCRASQDISNYLNWYQQKPDGAPKLLIYYTSRLQSGVPSRFSGSGSGTDYTLTISSLQPEDFATYYCQQGDTLPYTFGGGTKVEIKR
B15: hu13H1L1 (antibody, human IgG1, kappa, V domains shown)
VH: B14 VH with G49A, R92T
VL: B14 VL with D41G, G42K, Y71F
B16: hu13H1L3 (antibody, human IgG1, kappa, V domains shown)
VH: B14 VH with G49A, R92T
VL: B14 VL with A43T, P44V
B17: hu13H3L3 (antibody, human IgG1, kappa, V domains shown)
VH: B14 VH with S30T, A44G, T73N
VL: B14 VL with A43T, P44V
B18: hu13H2L3 (antibody, human IgG1, kappa, V domains shown)
VH: B14 VH
VL: B14 VL with A43T, P44V
B19: hu13H1L2 (antibody, human IgG1, kappa, V domains shown)
VH: B14 VH with G49A, R92T
VL: B14 VL
B20: hu13H3L1 (antibody, human IgG1, kappa, V domains shown)
VH: B14 VH with S30T, A44G, T73N
VL: B14 VL with D41G, G42K, Y71F
B21: hu13H2L1 (antibody, human IgG1, kappa, V domains shown)
VH: B14 VH
VL: B14 VL with D41G, G42K, Y71F
B22: hu13H3L2 (antibody, human IgG1, kappa, V domains shown)
VH: B14 VH with S30T, A44G, T73N
VL: B14 VL

Changes are numbered by the printed parent chain.

The target of one assay is T1, human PSMA on cells (Cho-hPSMA, CHO-K1 cells overexpressing full-length human PSMA) (human, UniProt Q04609 1-750). As to the kind of experiment: cell-based or functional assay.
T1 sequence (Q04609 whole entry): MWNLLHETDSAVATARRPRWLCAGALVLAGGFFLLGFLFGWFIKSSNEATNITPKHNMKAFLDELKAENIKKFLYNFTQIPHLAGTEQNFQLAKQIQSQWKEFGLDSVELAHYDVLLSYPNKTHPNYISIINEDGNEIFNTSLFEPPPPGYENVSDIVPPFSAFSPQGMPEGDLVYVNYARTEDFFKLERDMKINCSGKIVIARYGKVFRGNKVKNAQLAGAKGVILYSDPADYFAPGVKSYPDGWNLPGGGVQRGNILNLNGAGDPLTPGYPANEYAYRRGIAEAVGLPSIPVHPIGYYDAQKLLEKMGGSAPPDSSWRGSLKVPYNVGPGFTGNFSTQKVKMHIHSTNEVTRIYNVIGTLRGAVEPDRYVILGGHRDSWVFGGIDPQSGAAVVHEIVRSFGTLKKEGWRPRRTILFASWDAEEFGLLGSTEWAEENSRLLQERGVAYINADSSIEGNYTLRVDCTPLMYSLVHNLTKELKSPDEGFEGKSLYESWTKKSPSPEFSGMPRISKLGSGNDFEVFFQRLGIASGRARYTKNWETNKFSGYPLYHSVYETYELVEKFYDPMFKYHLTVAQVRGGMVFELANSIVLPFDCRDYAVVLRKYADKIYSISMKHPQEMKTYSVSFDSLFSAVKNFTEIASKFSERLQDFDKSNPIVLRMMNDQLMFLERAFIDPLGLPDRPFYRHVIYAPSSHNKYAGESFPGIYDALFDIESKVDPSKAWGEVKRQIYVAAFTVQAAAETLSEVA
For the molecule B1, the “cytotoxic activity against Lncap, EC50 (LDH release, PBMC E:T 10:1, 48 h)” value came to 0.0084 nM and the “cytotoxic activity against Lncap, Maximum lysis rate %” value worked out at 48.7%.

The next assay addresses hTSLP (human, UniProt Q969D9 29-159). Description: ELISA.
B2 yielded an EC50 of 3.23 nM.
Still for that read-out and setting: the same measure for B3: 2.18 nM.
For B4, a half-maximal effect (EC50) was put at 2.64 nM.
The same measure, in the same setting: the result for B5 reads 2.88 nM.

A further assay concerns the target hIL5 (human, UniProt P05113 20-134). As to the kind of experiment: ELISA.
B2 displayed an EC50 of 17.4 nM. This lies in the double-digit nanomolar range.
The same measure, in the same setting: the same measure for B3: 17.7 nM; for B4: 16 nM.
Same read-out and setting: the same measure for B5: 37 nM.

The target of another assay is hPDL1 (human, UniProt Q9NZQ7 19-238). As to the kind of experiment: ELISA.
Sequence of hPDL1 (Q9NZQ7 19-238 limits assumed): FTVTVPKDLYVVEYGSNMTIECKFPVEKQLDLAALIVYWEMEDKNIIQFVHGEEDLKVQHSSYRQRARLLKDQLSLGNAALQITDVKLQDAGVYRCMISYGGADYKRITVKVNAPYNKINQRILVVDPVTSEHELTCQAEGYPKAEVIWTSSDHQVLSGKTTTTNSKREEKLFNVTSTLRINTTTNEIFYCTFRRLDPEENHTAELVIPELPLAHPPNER
The molecule B6 had an EC50 of 0.7 nM. That is a sub-nanomolar value.
The same measure, in the same setting: the result for B7 reads 0.8 nM.
Same read-out and setting: the result for B8 reads 0.6 nM; that for B9, 0.6 nM.
In turn, B10 displayed an EC50 of 0.5 nM.
In the case of B11, a half-maximal effect (EC50) was put at 0.6 nM.
Consider B12, for which a half-maximal response (EC50) required 1.4 nM.

The target in a further assay is hCTLA4 (human, UniProt P16410 36-161). Description: ELISA.
Sequence of hCTLA4 (P16410 36-161 limits assumed): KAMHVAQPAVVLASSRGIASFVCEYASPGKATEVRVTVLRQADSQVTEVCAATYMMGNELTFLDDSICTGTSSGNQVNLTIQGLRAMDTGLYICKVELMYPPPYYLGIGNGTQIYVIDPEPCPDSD
Molecule B6 gave an EC50 of 6.7 nM.
On the same count and under the same terms, the same measure for B7: 5.3 nM.
B8 yielded an EC50 of 5.6 nM.
On the same count and under the same terms, the same measure for B9: 6.9 nM.
Still for that read-out and setting: the same measure for B10: 7.3 nM; for B11: 5.5 nM; for B12: 14.5 nM.

The target in another assay is T1, human PSMA on cells (Cho-hPSMA, CHO-K1 …). As to the kind of experiment: flow cytometry, Cho-hPSMA cells. The method, then: The binding activity of antibodies to the stably transfected cell strain Cho-hPSMA, which overexpresses human PSMA, was measured by flow cytometry in this test example. The full-length gene encoding human PSMA was cloned into the mammalian cell expression vector pCDH. HEK293T cells (ATCC® CRL-11268) were co-transfected with three plasmids-pVSV-G, pCMV-dR8.91, and pCDH-human PSMA- to package viruses. After 48 h of transfection, viruses were collected to infect CHO-K1 cells.
Experiment 1: Cho-hPSMA was cultured in F12 medium with 10% FBS. The medium to which cells were inoculated was incubated in a 37° C., 5% CO₂ incubator for 2 days, and cells were added to a cell plate at 1×10⁵ cells/well and washed by centrifugation. Antibodies were serially diluted, and the antibody solutions were added to the cell plate at 100 μL/well. The plate was incubated at 4° C. for 1 h and then washed. An AF488-Goat Anti-human IgG Fc fluorescent secondary antibody dilution (1:400) was added to the cell plate at 100 μL/well, and the plate was incubated at 4° C. for 1 h and then washed. PBS was added to the cell plate at 100 μL/well before plate reading.
In the case of B13, a half-maximal response (EC50) required 1.21 µg/mL.
Molecule B14 displayed an EC50 of 1.09 µg/mL.
Same read-out and setting: the result for B15 reads 0.947 µg/mL; that for B16, 1.01 µg/mL; that for B17, 1.5 µg/mL.
Turning to B18, the EC50 is 1.14 µg/mL. This EC50 and that of the molecule before are within 1.5-fold of each other.
Same read-out and setting: the same measure for B19: 0.981 µg/mL; for B20: 1.05 µg/mL.
Take B21: the EC50 was 1.05 µg/mL.
Still for that read-out and setting: the same measure for B22: 1.1 µg/mL.

For the next assay, the target named is T2, human PSMA antigen (R&D SYSTEM, 4234-ZN-010) (human, UniProt Q04609 44-750).
T2 construct: bought antigen
T2 sequence (Q04609 44-750 limits assumed): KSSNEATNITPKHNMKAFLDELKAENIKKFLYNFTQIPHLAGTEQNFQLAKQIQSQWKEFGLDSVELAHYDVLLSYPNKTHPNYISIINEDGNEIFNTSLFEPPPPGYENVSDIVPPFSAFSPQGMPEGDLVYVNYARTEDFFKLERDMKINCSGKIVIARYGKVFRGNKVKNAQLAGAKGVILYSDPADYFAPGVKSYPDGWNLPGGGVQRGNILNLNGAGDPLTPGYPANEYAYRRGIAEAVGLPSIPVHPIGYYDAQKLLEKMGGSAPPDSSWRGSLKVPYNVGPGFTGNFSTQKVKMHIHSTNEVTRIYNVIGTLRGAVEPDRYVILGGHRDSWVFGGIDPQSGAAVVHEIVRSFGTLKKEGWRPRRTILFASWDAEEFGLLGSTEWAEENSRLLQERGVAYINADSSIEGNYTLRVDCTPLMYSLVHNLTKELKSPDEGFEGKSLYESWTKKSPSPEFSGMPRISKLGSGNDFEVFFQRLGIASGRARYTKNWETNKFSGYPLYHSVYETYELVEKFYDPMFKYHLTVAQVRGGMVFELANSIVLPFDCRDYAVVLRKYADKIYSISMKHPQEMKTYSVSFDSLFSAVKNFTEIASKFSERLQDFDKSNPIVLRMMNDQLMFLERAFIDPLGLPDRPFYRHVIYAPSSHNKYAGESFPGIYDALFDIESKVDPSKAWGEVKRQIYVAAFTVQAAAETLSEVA
As to the kind of experiment: ELISA, plate-bound PSMA antigen. The method, then: To test the ability of the PSMA-targeting humanized antibodies of the present disclosure to bind to PSMA antigen, the ELISA method was used in this test example to measure the binding of the PSMA-targeting humanized antibodies to human PSMA antigen (purchased from R&D SYSTEM, 4234-ZN-010). The specific steps are as follows: A 96-well plate was coated with PSMA antigen at 1 μg/well and placed at 4° C. overnight. After the supernatant was discarded, the plate was blocked with 5% skim milk for 2 h. Different concentrations of humanized antibodies were prepared using 1% BSA. The initial concentration was 10 μg/mL and was serially diluted 4-fold to obtain 12 concentrations. After the blocked 96-well plate was washed twice, the […] was added, and the plate was incubated at 4° C. for 1 h. After four washes, the plate was incubated with Strepidation-HRP secondary antibody (1:10,000) at 4° C. for 1 h. After color development with TMB, the reaction was stopped with 0.1 M sulfuric acid.
As for B13, the EC50 was 0.0409 µg/mL and the “Top (maximum absorbance)” value was found to be 2.11 absorbance.
